Data as given in patent US20250376520A1 (SINGAPORE HEALTH SERVICES PTE, published 2025).

Molecular target: human TRPM4 (transient receptor potential melastatin 4) channel, myc-tagged, expressed in HEK 293 cells (human, UniProt Q8TD43 1-1214)
Assay: cell-based or functional assay

human TRPM4 (transient receptor potential melastatin 4) channel, myc-tagged, expressed in HEK 293 cells, sequence (Q8TD43 whole entry): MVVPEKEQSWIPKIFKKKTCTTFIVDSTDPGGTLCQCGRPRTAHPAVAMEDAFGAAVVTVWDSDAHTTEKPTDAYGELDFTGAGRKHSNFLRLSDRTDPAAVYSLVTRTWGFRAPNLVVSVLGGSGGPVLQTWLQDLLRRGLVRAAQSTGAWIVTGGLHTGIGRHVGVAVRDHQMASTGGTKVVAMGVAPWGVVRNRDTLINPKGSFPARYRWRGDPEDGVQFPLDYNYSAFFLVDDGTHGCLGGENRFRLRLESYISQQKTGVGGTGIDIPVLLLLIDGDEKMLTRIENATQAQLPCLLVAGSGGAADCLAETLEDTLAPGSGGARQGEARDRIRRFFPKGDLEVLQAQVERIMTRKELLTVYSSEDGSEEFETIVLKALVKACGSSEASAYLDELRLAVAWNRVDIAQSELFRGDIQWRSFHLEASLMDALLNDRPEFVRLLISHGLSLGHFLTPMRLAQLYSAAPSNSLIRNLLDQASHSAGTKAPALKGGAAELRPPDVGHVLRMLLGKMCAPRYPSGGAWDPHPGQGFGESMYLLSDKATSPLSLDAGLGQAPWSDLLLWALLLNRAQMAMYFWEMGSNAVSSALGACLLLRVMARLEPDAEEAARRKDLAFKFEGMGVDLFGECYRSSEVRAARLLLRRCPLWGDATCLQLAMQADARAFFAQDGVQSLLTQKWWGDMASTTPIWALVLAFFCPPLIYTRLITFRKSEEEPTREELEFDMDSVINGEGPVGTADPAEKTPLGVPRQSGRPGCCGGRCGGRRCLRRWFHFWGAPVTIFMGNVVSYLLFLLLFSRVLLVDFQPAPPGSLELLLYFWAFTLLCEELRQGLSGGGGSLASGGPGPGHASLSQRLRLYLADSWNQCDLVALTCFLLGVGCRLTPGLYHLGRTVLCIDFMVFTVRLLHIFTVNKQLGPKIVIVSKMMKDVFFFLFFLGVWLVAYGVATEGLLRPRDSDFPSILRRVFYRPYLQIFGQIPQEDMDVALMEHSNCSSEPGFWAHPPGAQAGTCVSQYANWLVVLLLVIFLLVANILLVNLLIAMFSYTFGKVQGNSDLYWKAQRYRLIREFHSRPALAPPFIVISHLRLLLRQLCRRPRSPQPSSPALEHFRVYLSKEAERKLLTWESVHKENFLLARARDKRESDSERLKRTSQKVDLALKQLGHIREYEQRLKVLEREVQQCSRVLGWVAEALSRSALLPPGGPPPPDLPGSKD

B1: humanized anti-TRPM4 antibody clone A6 (VH2 + VL1), renamed M4H (antibody, human IgG1, kappa, V domains shown)
VH: QVQLQESGPGLVKPSQTLSLTCTVSGYSITSDYAWNWIRQHPGKGLEWMGYLSYSGVTSYNPSLKGRVTISRDTSKNQFSLKLSSVTAADTAVYYCARKGTYYRYEGSYWYFDVWGQGTTVTVSS
VL: DIQMTQSPSSLSASVGDRVTITCHANQNIDVWLSWYQQKPGKAPKLLIYKTSNLHTGVPSRFSGSGSGTDFTFTISSLQPEDIATYYCQQGQSYPLTFGGGTKLEIKR
IC50, dose-dependent inhibition of hypoxia-induced TRPM4 current increase: 1.04 µg/mL
